B1: mAb17 (analog of camrelizumab) (antibody, V domains shown)
VH: EVQLVESGGGLVQPGGSLRLSCAASGFTFSSYMMSWVRQAPGKGLEWVATISGGGANTYYPDSVKGRFTISRDNAKNSLYLQMNSLRAEDTAVYYCARQLYYFDYWGQGTTVTVSS
VL: DIQMTQSPSSLSASVGDRVTITCLASQTIGTWLTWYQQKPGKAPKLLIYTATSLADGVPSRFSGSGSGTDFTLTISSLQPEDFATYYCQQVYSIPWTFGGGTKVEIK
notes: VH; IgG4 heavy-chain constant region with stabilizing 226CPPC hinge; VL; IgG4 analog; source: HEK293 suspension cells, cotransfected, purified (Protein A)
B2: mAb21 (analog of sintilimab) (antibody, V domains shown)
VH: QVQLVQSGAEVKKPGSSVKVSCKASGGTFSSYAISWVRQAPGQGLEWMGLIIPMFDTAGYAQKFQGRVAITVDESTSTAYMELSSLRSEDTAVYYCARAEHSSTGTFDYWGQGTLVTVSS
VL: DIQMTQSPSSVSASVGDRVTITCRASQGISSWLAWYQQKPGKAPKLLISAASSLQSGVPSRFSGSGSGTDFTLTISSLQPEDFATYYCQQANHLPFTFGGGTKVEIK
notes: as for B1
B3: mAb04 (analog of retifanlimab) (antibody, V domains shown)
VH: QVQLVQSGAEVKKPGASVKVSCKASGYSFTSYWMNWVRQAPGQGLEWIGVIHPSDSETWLDQKFKDRVTITVDKSTSTAYMELSSLRSEDTAVYYCAREHYGTSPFAYWGQGTLVTVSS
VL: EIVLTQSPATLSLSPGERATLSCRASESVDNYGMSFMNWFQQKPGQPPKLLIHAASNQGSGVPSRFSGSGSGTDFTLTISSLEPEDFAVYFCQQSKEVPYTFGGGTKVEIK
notes: as for B1
B4: mAb19 (analog of sasanlimab) (antibody, V domains shown)
VH: QVQLVQSGAEVKKPGASVKVSCKASGYTFTSYWINWVRQAPGQGLEWMGNIYPGSSLTNYNEKFKNRVTMTRDTSTSTVYMELSSLRSEDTAVYYCARLSTGTFAYWGQGTLVTVSS
VL: DIVMTQSPDSLAVSLGERATINCKSSQSLWDSGNQKNFLTWYQQKPGQPPKLLIYWTSYRESGVPDRFSGSGSGTDFTLTISSLQAEDVAVYYCQNDYFYPHTFGGGTKVEIK
notes: as for B1
B5: mAb03 (antibody, V domains shown)
VH: QVQLQESGPGLVKPSETLSLTCTVSGFSLTSYGVHWIRQPPGKGLEWIGVIYADGSTNYNPSLKSRVTISKDTSKNQVSLKLSSVTAADTAVYYCARAYGNYWYIDVWGQGTTVTVSS
VL: DIVMTQSPDSLAVSLGERATINCKSSESVSNDVAWYQQKPGQPPKLLINYAFHRFTGVPDRFSGSGYGTDFTLTISSLQAEDVAVYYCHQAYSSPYTFGQGTKLEIK
notes: IgG4; also called analog of tislelizumab; tisle; source: HEK293 suspension cells, cotransfected, purified (Protein A)
B6: mAb04 (antibody, V domains shown)
VH: B3 VH
VL: B3 VL
notes: IgG4; also called analog of retifanlimab; retifan; source: HEK293 suspension cells, cotransfected, purified (Protein A)
B7: mAb23 (antibody, V domains shown)
VH: EVQLLESGGVLVQPGGSLRLSCAASGFTFSNFGMTWVRQAPGKGLEWVSGISGGGRDTYFADSVKGRFTISRDNSKNTLYLQMNSLKGEDTAVYYCVKWGNIYFDYWGQGTLVTVSS
VL: DIQMTQSPSSLSASVGDSITITCRASLSINTFLNWYQQKPGKAPNLLIYAASSLHGGVPSRFSGSGSGTDFTLTIRTLQPEDFATYYCQQSSNTPFTFGPGTVVDFR
notes: IgG4; also called analog of cemiplimab; cemip; source: HEK293 suspension cells, cotransfected, purified (Protein A)
B8: mAb16 (antibody, V domains shown)
VH: EVQLLESGGGLVQPGGSLRLSCAASGFTFSSYDMSWVRQAPGKGLEWVSTISGGGSYTYYQDSVKGRFTISRDNSKNTLYLQMNSLRAEDTAVYYCASPYYAMDYWGQGTTVTVSS
VL: DIQLTQSPSFLSAYVGDRVTITCKASQDVGTAVAWYQQKPGKAPKLLIYWASTLHTGVPSRFSGSGSGTEFTLTISSLQPEDFATYYCQHYSSYPWTFGQGTKLEIK
notes: IgG4; also called analog of dostarlimab; dostar; source: HEK293 suspension cells, cotransfected, purified (Protein A)
B9: mAb17 (antibody, V domains shown)
VH: B1 VH
VL: B1 VL
notes: IgG4; also called analog of camrelizumab; camre; source: HEK293 suspension cells, cotransfected, purified (Protein A)

target: T1, Recombinant purified human PD-1 protein, residues Leu25-Thr168, with a C-terminal 6-His tag (human, UniProt Q15116); test: SPR; Biacore 8K, 3D-hydrogel chips (average of CM5 and CMD-200M); mAbs captured on goat anti-human IgG Fc; PD-1 His-tagged monomer analyte 0.4-100 nM; 25 C; HBS-EP+ pH 7.4; 1:1 Langmuir fit with mass transport; apparent; settings: both partners purified
T1 construct: programmed cell death protein 1 (PD-1), human, residues Leu25-Thr168; monomer; the results call it wild-type or full length PD-1 against the P35-Q167 fragment; also called PD-1-His; PD-1 His-tagged monomer; source: bought: R&D Systems; not shown: His6, C-terminal, kept
T1 sequence (Q15116 25-168): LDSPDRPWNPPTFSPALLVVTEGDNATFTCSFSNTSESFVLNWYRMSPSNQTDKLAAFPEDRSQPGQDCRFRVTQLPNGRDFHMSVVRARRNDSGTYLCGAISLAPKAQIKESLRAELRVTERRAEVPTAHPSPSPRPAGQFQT

| Binder | Kd |
| --- | --- |
| B1 | 4.5 nM |
| B2 | < 0.21 nM |
| B3 | 0.65 nM |
| B4 | < 0.3 nM |

target: T1, Recombinant purified human PD-1 …; test: SPR; Carterra LSA, CMD-P (flat) chip; mAbs captured on goat anti-human IgG Fc in a 384-spot array; PD-1-His analyte 0.5-1000 nM, 5 min association, 20 min dissociation; HBS-ET + 0.5 mg/ml BSA; 1:1 Langmuir fit; mean of spots; apparent; settings: both partners purified

| Binder | Kd | koff | kon |
| --- | --- | --- | --- |
| B1 | 4 nM | 0.00073 s⁻¹ | 180000 M⁻¹ s⁻¹ |
| B2 | < 0.13 nM | < 4.3e-05 s⁻¹ | 330000 M⁻¹ s⁻¹ |
| B3 | 0.7 nM | 0.00039 s⁻¹ | 580000 M⁻¹ s⁻¹ |
| B4 | < 0.17 nM | < 4.3e-05 s⁻¹ | 250000 M⁻¹ s⁻¹ |

target: T2, Recombinant purified human PD-1 protein, residues Leu25-Thr168, with a C-terminal 6-His tag (Homo sapiens, UniProt Q15116); test: SPR; Biacore 8K, C1 chip (flat); mAb captured on amine-coupled goat anti-human IgG Fc, PD-1-His monomer as analyte (100 nM top, 3-fold dilutions), 1200 s dissociation; 25 C, HBS-EP+ pH 7.4; 1:1 Langmuir fit, apparent constants; 8 mAbs measured in two independent experiments; settings: both partners purified
T2 construct: programmed cell death protein 1 (PD-1), human, residues Leu25-Thr168; also called programmed cell death protein 1; PD-1-His monomer; source: bought: R&D Systems (catalog# 8986-PD, lot# DDJM0417041)
T2 sequence (Q15116 25-168): as above

| Binder | Kd | koff | kon |
| --- | --- | --- | --- |
| B5 | 0.128 nM | 8.72e-05 s⁻¹ | 682000 M⁻¹ s⁻¹ |
| B6 | 0.297 nM | 0.000277 s⁻¹ | 933000 M⁻¹ s⁻¹ |

target: T2, Recombinant purified human PD-1 …; test: SPR; Biacore 8K, CMD-200M chip (3D-hydrogel); mAb captured on amine-coupled goat anti-human IgG Fc, PD-1-His monomer as analyte (100 nM top, 3-fold dilutions), 1200 s dissociation; 25 C, HBS-EP+ pH 7.4; 1:1 Langmuir fit, apparent constants; settings: both partners purified

| Binder | Kd | koff | kon |
| --- | --- | --- | --- |
| B7 | 2.01 nM | 0.000212 s⁻¹ | 105000 M⁻¹ s⁻¹ |
| B8 | 1.63 nM | 0.000287 s⁻¹ | 176000 M⁻¹ s⁻¹ |
| B9 | 4.09 nM | 0.000503 s⁻¹ | 123000 M⁻¹ s⁻¹ |
| B5 | 0.24 nM | 6.16e-05 s⁻¹ | 257000 M⁻¹ s⁻¹ |
| B6 | 0.582 nM | 0.000253 s⁻¹ | 435000 M⁻¹ s⁻¹ |

target: T2, Recombinant purified human PD-1 …; test: SPR; Biacore 8K, C1 chip (flat); mAb captured on amine-coupled goat anti-human IgG Fc, PD-1-His monomer as analyte (100 nM top, 3-fold dilutions), 1200 s dissociation; 25 C, HBS-EP+ pH 7.4; 1:1 Langmuir fit, apparent constants; 8 mAbs measured in two independent experiments; settings: both partners purified; remark: another data set of the same source

| Binder | Kd | koff | kon |
| --- | --- | --- | --- |
| B7 | 0.752 nM | 0.000188 s⁻¹ | 250000 M⁻¹ s⁻¹ |
| B8 | 0.784 nM | 0.000297 s⁻¹ | 379000 M⁻¹ s⁻¹ |
| B9 | 2.15 nM | 0.000526 s⁻¹ | 245000 M⁻¹ s⁻¹ |
| B5 | 0.119 nM | 7.54e-05 s⁻¹ | 636000 M⁻¹ s⁻¹ |
| B6 | 0.307 nM | 0.000269 s⁻¹ | 877000 M⁻¹ s⁻¹ |

target: T2, Recombinant purified human PD-1 …; test: SPR; Biacore 8K, CM5 chip (3D-hydrogel); mAb captured on amine-coupled goat anti-human IgG Fc, PD-1-His monomer as analyte (100 nM top, 3-fold dilutions), 1200 s dissociation; 25 C, HBS-EP+ pH 7.4; 1:1 Langmuir fit, apparent constants; settings: both partners purified

| Binder | Kd | koff | kon |
| --- | --- | --- | --- |
| B7 | 1.75 nM | 0.000157 s⁻¹ | 90100 M⁻¹ s⁻¹ |
| B8 | 1.77 nM | 0.000262 s⁻¹ | 148000 M⁻¹ s⁻¹ |
| B9 | 4.99 nM | 0.000456 s⁻¹ | 91400 M⁻¹ s⁻¹ |
| B5 | 0.277 nM | 6.03e-05 s⁻¹ | 218000 M⁻¹ s⁻¹ |
| B6 | 0.717 nM | 0.000235 s⁻¹ | 328000 M⁻¹ s⁻¹ |

target: T1, Recombinant purified human PD-1 …; test: SPR; Biacore 8K, flat chips (average of C1 and CMD-P); mAbs captured on goat anti-human IgG Fc; PD-1 His-tagged monomer analyte 0.4-100 nM; 25 C; HBS-EP+ pH 7.4; 1:1 Langmuir fit with mass transport; apparent; settings: both partners purified

| Binder | Kd |
| --- | --- |
| B1 | 2.4 nM |
| B2 | < 0.12 nM |
| B3 | 0.35 nM |
| B4 | < 0.13 nM |

target: T2, Recombinant purified human PD-1 …; test: SPR; Biacore 8K, CMD-P chip (flat); mAb captured on amine-coupled goat anti-human IgG Fc, PD-1-His monomer as analyte (100 nM top, 3-fold dilutions), 1200 s dissociation; 25 C, HBS-EP+ pH 7.4; 1:1 Langmuir fit, apparent constants; settings: both partners purified

| Binder | Kd | koff | kon |
| --- | --- | --- | --- |
| B7 | 0.897 nM | 0.000164 s⁻¹ | 183000 M⁻¹ s⁻¹ |
| B8 | 0.965 nM | 0.000269 s⁻¹ | 279000 M⁻¹ s⁻¹ |
| B9 | 2.58 nM | 0.000497 s⁻¹ | 192000 M⁻¹ s⁻¹ |
| B5 | 0.134 nM | 5.77e-05 s⁻¹ | 432000 M⁻¹ s⁻¹ |
| B6 | 0.387 nM | 0.000235 s⁻¹ | 608000 M⁻¹ s⁻¹ |

target: T3, biotinylated His-tagged PD-1 (Homo sapiens, UniProt Q15116, biotin); test: MSD solution equilibrium titration; 100 pM biotinylated His-tagged PD-1 titrated with mAb (top 100, 50 or 10 nM binding sites), 18 h at room temperature; free antigen captured on mAb-coated MSD plates; relative KD; settings: both partners purified
T3 construct: PD-1, His-tagged, biotinylated, used in the MSD experiments; probably the R&D Systems Leu25-Thr168 protein after biotinylation
T3 sequence (Q15116 whole entry, looked up, tested part not stated): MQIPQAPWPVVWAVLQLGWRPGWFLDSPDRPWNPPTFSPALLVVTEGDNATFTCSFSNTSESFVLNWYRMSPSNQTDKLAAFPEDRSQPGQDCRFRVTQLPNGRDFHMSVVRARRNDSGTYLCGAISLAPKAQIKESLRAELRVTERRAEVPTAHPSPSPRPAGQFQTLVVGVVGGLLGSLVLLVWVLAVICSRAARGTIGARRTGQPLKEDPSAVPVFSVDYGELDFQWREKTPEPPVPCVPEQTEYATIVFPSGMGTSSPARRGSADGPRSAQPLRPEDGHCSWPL

| Binder | Kd |
| --- | --- |
| B1 | 0.47 nM |
| B2 | 0.028 nM |
| B3 | 0.056 nM |
| B4 | 0.02 nM |
